Experiments:
[1] = molecular target: T1, Full-length Has1, His-tagged (Saccharomyces cerevisiae (strain ATCC …, UniProt Q03532)); experiment: Ni-NTA pull-down, Coomassie SDS-PAGE
[2] = molecular target: T2, Full-length Rok1, His-tagged (Saccharomyces cerevisiae (strain ATCC …, UniProt P45818)); experiment: Ni-NTA pull-down, Coomassie SDS-PAGE; 2 mM ATP present
T2 chain: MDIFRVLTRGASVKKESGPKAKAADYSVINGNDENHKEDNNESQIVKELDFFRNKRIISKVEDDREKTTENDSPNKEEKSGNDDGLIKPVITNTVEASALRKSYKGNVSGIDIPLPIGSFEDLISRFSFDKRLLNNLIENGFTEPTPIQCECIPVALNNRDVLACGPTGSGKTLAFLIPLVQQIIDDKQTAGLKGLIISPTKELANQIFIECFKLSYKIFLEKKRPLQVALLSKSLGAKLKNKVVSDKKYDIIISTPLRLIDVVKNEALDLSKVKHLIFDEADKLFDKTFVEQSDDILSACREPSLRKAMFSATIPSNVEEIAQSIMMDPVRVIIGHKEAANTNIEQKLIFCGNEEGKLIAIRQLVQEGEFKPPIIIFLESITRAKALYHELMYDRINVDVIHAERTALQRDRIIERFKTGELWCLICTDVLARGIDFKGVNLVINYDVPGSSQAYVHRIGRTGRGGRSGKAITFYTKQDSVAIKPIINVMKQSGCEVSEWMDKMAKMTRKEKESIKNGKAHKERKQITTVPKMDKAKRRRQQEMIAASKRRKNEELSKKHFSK

[3] = molecular target: T1, Full-length Has1, His-tagged; experiment: Ni-NTA pull-down and co-expression, SDS-PAGE

T1 sequence (Q03532 whole entry): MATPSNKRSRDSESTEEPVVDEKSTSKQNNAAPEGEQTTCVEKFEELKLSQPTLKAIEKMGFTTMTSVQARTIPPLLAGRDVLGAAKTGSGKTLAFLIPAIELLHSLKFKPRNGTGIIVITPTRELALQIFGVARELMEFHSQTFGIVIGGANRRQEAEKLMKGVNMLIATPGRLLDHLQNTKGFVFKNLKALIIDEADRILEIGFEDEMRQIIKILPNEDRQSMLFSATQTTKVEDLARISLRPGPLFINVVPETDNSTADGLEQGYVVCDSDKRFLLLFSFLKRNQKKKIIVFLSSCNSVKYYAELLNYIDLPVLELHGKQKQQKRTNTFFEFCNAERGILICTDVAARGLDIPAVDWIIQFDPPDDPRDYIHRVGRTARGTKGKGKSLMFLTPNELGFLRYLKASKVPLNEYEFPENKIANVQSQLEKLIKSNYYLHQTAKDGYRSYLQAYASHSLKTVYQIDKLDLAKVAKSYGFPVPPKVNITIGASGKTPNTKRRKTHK

B1: Rrp5 (1083–1343), the last 3 S1 domains only (protein)
chain: STIKVGDELPGRVLKIAEKYVLLDLGNKVTGISFITDALNDFSLTLKEAFEDKINNVIPTTVLSVDEQNKKIELSLRPATAKTRSIKSHEDLKQGEIVDGIVKNVNDKGIFVYLSRKVEAFVPVSKLSDSYLKEWKKFYKPMQYVLGKVVTCDEDSRISLTLRESEINGDLKVLKTYSDIKAGDVFEGTIKSVTDFGVFVKLDNTVNVTGLAHITEIADKKPEDLSALFGVGDRVKAIVLKTNPEKKQISLSLKASHFSKE
binding result [1]: no binding | binding result [2]: no binding

B2: Rrp5 (1400–1729), the TPR region alone (protein)
chain: GLSLSAGFDWTASILDQAQEEEESDQDQEDFTENKKHKHKRRKENVVQDKTIDINTRAPESVADFERLLIGNPNSSVVWMNYMAFQLQLSEIEKARELAERALKTINFREEAEKLNIWIAMLNLENTFGTEETLEEVFSRACQYMDSYTIHTKLLGIYEISEKFDKAAELFKATAKKFGGEKVSIWVSWGDFLISHNEEQEARTILGNALKALPKRNHIEVVRKFAQLEFAKGDPERGRSLFEGLVADAPKRIDLWNVYVDQEVKAKDKKKVEDLFERIITKKITRKQAKFFFNKWLQFEESEGDEKTIEYVKAKATEYVASHESQKADE
binding result [3]: no binding
